One series addresses T1, TmCHMO (Thermocrispum municipale, UniProt A0A1L1QK39).
T1 construct: purified recombinant enzyme (E. coli used as expression host for whole-cell work)
T1 sequence (A0A1L1QK39 1-541): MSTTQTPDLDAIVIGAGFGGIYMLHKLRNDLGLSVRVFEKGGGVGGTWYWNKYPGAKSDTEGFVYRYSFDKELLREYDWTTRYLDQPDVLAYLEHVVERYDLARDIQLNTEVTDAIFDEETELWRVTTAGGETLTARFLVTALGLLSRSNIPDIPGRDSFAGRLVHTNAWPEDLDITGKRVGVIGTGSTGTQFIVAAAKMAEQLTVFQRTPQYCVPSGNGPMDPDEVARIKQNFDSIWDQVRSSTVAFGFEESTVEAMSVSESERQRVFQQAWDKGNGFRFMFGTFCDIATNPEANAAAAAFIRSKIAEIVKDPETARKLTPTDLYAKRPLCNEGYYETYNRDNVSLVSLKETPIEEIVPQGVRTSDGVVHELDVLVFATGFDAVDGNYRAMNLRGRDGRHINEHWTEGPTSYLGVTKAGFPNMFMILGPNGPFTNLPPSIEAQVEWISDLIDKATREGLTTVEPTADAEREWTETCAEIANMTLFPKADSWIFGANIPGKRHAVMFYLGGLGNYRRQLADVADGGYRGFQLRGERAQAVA
Also noted: steady-state kinetics, NADPH consumption followed by absorbance at 340 nm. The settings on record: 150 uM NADPH, pH 7.0, 25 °C; substrate. The method, then:
Steady-State Kinetics. Steady-state kinetic parameters for purified TmCHMO and AcCHMO were determined using a V-660 spectrophotometer (Jasco). Enzyme (0.02-4 μM), NADPH (150 μM), and increasing substrate concentrations were reacted in air-saturated 50 mM Tris-HCl at pH 7.0 and 25 °C. The rate of NADPH consumption was determined by following the decrease in absorbance at 340 nm (ɛ340 = 6.22 mM-1 cm-1 ). The initial rates of the reactions were plotted as a function of the substrate concentrations. […] Among the assayed compounds (Figure S3), only progesterone and cyclopentadecanone (50 μM) were not substrates of either enzyme based on the NADPH consumption assay. 19 4. EXPERIMENTAL SECTION Materials. NADPH was acquired from Jülich Chiral Solutions GmbH. All other materials were acquired from Sigma-Aldrich unless otherwise specified. Cloning of TmCHMO and BVMOs Purification. The amino acid sequence of a putative CHMO from the thermophilic actinomycete T. municipale DSM 44069 was retrieved from the NCBI database (http://www.ncbi.nlm.nih.gov). This organism is able to grow at 28-60 °C.[8] The TmCHMO sequence was found by carrying out a BLASTP (http://blast.ncbi.nlm.nih.gov/Blast.cgi) using the amino acid sequence of AcCHMO as a query sequence. A codon-optimized TmCHMO gene was synthetized and cloned into pUC57 plasmid by GenScript. […]

For a further series, the system named is O=C1CC2C=CCC12. As to the kind of experiment: purified protein.
Another series concerns O=C1CCC1. As to the kind of experiment: purified protein.
In another series the test system is O=C1CCCCC1. As to the kind of experiment: purified protein.
A further series has as its target T2, TfPAMO (Thermobifida fusca, UniProt Q47PU3).
T2 construct: gene pamO
As to the kind of experiment: small-scale conversion. The format is biochemical. The settings on record: racemic substrate; enzyme preparation not given.

Substrate in series [1]: O=C1CC2C=CCC12
The experiment in a line: steady-state kinetics. The format is biochemical, Thermocrispum municipale.

Substrate in series [2]: O=C1CCC1
The experiment in a line: steady-state kinetics. The format is biochemical, Thermocrispum municipale.

Substrate in series [3]: O=C1CCCCC1
As to the kind of experiment: steady-state kinetics. Format: biochemical, Thermocrispum municipale.

Substrate in series [4]: CC(=O)Cc1ccccc1
As to the kind of experiment: purified protein, by the assay type. Details: steady-state kinetics, NADPH consumption followed by absorbance at 340 nm. To be noted: pH 7.0; 25.0 °C. The method, then:
(§1) Steady-State Kinetics. Steady-state kinetic parameters for purified TmCHMO and AcCHMO were determined using a V-660 spectrophotometer (Jasco). Enzyme (0.02-4 μM), NADPH (150 μM), and increasing substrate concentrations were reacted in air-saturated 50 mM Tris-HCl at pH 7.0 and 25 °C. The rate of NADPH consumption was determined by following the decrease in absorbance at 340 nm (ɛ340 = 6.22 mM-1 cm-1 ). The initial rates of the reactions were plotted as a function of the substrate concentrations. […] Among the assayed compounds (Figure S3), only progesterone and cyclopentadecanone (50 μM) were not substrates of either enzyme based on the NADPH consumption assay. 19 4. EXPERIMENTAL SECTION Materials. NADPH was acquired from Jülich Chiral Solutions GmbH. All other materials were acquired from Sigma-Aldrich unless otherwise specified. Cloning of TmCHMO and BVMOs Purification. The amino acid sequence of a putative CHMO from the thermophilic actinomycete T. municipale DSM 44069 was retrieved from the NCBI database (http://www.ncbi.nlm.nih.gov). This organism is able to grow at 28-60 °C.[8] The TmCHMO sequence was found by carrying out a BLASTP (http://blast.ncbi.nlm.nih.gov/Blast.cgi) using the amino acid sequence of AcCHMO as a query sequence. A codon-optimized TmCHMO gene was synthetized and cloned into pUC57 plasmid by GenScript. The TmCHMO gene was subcloned using standard methods into the pCRE2 plamid[9] with XhoI and HindIII restriction sites at the 5’ end and 3’ end, respectively. The resulting plasmid is a pBAD vector harboring a gene encoding TmCHMO fused to the C-terminus of a thermostable variant of phosphite dehydrogenase (PTDH). A histidine tag at the N-terminus of the PTDH is also included in this construct. The same construct containing either the AcCHMO gene or the TfPAMO gene, instead of the TmCHMO gene, was carried out for a previous study[9] and used here to obtain the corresponding fusion proteins. The TmCHMO gene was also subcloned into a pBAD plasmid containing the SUMO (small ubiquitin-related modifier) gene with a N-terminal histidine tag (pBAD-His-Tag-SUMO-TmCHMO).

Substrate in series [5]: CC(=O)c1ccccc1
As to the kind of experiment: purified protein, by the assay type. Details: steady-state kinetics, NADPH consumption followed by absorbance at 340 nm. The settings on record: pH 7.0; 25.0 °C. The method, then:
as §1

Substrate in series [6]: CCC(C)=O
The experiment in a line: purified protein, by the assay type. Also noted: steady-state kinetics, NADPH consumption followed by absorbance at 340 nm. The settings on record: pH 7.0; 25.0 °C. The method, then:
as §1

Substrate in series [7]: CCCCCCC(C)=O
The experiment in a line: purified protein, by the assay type. The settings on record: pH 7.0; 25.0 °C. Details: steady-state kinetics, NADPH consumption followed by absorbance at 340 nm. The method, then:
as §1

Substrate in series [8]: CCCCCCCCC(C)=O
As to the kind of experiment: purified protein, by the assay type. Details: steady-state kinetics, NADPH consumption followed by absorbance at 340 nm. The settings on record: pH 7.0; 25.0 °C. The method, then: as §1

Substrate in series [9]: O=C1CCCC1
As to the kind of experiment: purified protein, by the assay type. Details: steady-state kinetics, NADPH consumption followed by absorbance at 340 nm. The settings on record: pH 7.0; 25.0 °C. The method, then: as §1

T2 sequence (Q47PU3 whole entry): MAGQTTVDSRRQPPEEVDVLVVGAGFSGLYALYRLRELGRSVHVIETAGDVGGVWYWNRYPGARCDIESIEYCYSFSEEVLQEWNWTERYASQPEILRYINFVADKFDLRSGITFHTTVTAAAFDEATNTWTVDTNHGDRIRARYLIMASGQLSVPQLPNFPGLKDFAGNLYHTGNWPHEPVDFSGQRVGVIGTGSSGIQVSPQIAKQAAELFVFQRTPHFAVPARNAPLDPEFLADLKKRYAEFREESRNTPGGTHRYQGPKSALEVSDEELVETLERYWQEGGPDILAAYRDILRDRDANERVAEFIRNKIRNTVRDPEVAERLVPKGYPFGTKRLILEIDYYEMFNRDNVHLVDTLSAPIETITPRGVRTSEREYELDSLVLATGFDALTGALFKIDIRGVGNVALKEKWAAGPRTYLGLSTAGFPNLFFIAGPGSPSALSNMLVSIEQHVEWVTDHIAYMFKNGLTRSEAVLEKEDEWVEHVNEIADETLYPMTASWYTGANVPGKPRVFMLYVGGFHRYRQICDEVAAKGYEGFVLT

For orientation: Km means the substrate concentration at which the rate is half of its maximum. Turning to `CSc1ccccc1` [thioanisole], the Km at TmCHMO was less than 60 µM.

The term kcat denotes the number of substrate molecules converted per active site and unit of time at saturation. AcCHMO (Acinetobacter johnsonii): the kcat was 4 s⁻¹ with O=C1CC2C=CCC12, 4 s⁻¹ in the series with O=C1CCC1 and 6 s⁻¹ in the series with O=C1CCCCC1. Further, the Km in the series on O=C1CCCCC1 turned out to be 9 µM.

Consider `O=C1CC2C=CCC12` (racemic) [bicyclo[3.2.0]hept‐2‐en‐6‐one], for which, on TfPAMO, the small-scale conversion result is reported as “By contrast, TfPAMO produced all four possible lactones”.

B1: TmCHMO (Thermocrispum municipale DSM 44069) (protein)
chain: T1 sequence (A0A1L1QK39 1-541)
notes: purified recombinant enzyme (E. coli used as expression host for whole-cell work)
B1: the kcat in “steady-state kinetics [1]”, in “steady-state kinetics [2]” and in “steady-state kinetics [3]” was 2 s⁻¹ throughout. Further, the Km turned out to be 200 µM in [4]; 5000 µM in [5]; 500 µM in [6]; 100 µM in [7]; 50 µM in series [8]; 20 µM in [9].
